Biological target: PDZ1/2 domain (Homo sapiens (Human)), P78352
Assay: SPR, Biacore 3000, PDZ1/2 amine-coupled on CM5 chip, peptide as analyte, 1:1 binding model

Chain of PDZ1/2 domain (Homo sapiens (Human)), P78352 (P78352 65-246 limits assumed): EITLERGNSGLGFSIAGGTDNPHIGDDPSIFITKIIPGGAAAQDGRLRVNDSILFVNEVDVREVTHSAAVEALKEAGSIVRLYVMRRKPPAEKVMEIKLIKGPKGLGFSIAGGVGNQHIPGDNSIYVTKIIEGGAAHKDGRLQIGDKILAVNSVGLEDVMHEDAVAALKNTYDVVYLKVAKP

YGRKKRRQRRRYEKLSSIESDV (modifications not checked) [chimeric peptide YE-NA-1]
Kd: 54.4 nM
